Source: paper PMC7102968, “The complex formed between a synthetic RNA aptamer and the transcription repressor TetR is a structural and functional twin of the operator DNA–TetR regulator complex”

How the values were obtained:
[1] = molecular target: T1, TetR-R28A (UniProt P04483 1-187+P0ACT4:188-208, R28A;C68S;C88N;C121T;C144S;internal_change); assay: EMSA; 10 mM Mg2+, up to 1000 nM TetR; ITC: 20 mM potassium phosphate pH 7.4, 50 mM NaCl, 25 C; EMSA: 50 mM Tris-HCl pH 8.0, 10 mM MgCl2, 25 mM NaCl, 25 ug/ml yeast tRNA, room temperature; SEC buffer not given (preparative complex: 20 mM Tris-HCl pH 8.0, 150 mM NaCl, 5 mM MgCl2); conditions: protein: recombinant, chain copies: 2, label: 5'-32P in EMSA, none in ITC, crystal, hairpin, L-shaped, 43 nt, stems P1 and P2
[2] = molecular target: T2, TetR-Q38A (UniProt P04483 1-187+P0ACT4:188-208, Q38A;C68S;C88N;C121T;C144S;internal_change); assay: ITC; n=1.10; ITC: 20 mM potassium phosphate pH 7.4, 50 mM NaCl, 25 C; EMSA: 50 mM Tris-HCl pH 8.0, 10 mM MgCl2, 25 mM NaCl, 25 ug/ml yeast tRNA, room temperature; SEC buffer not given (preparative complex: 20 mM Tris-HCl pH 8.0, 150 mM NaCl, 5 mM MgCl2); conditions: protein: recombinant, chain copies: 2, label: 5'-32P in EMSA, none in ITC, crystal, hairpin, L-shaped, 43 nt, stems P1 and P2
[3] = molecular target: T3, TetR(BD') (UniProt P04483 1-187+P0ACT4:188-208, C68S;C88N;C121T;C144S;internal_change); assay: EMSA; 10 mM Mg2+, 25 ug/ml yeast tRNA; ITC: 20 mM potassium phosphate pH 7.4, 50 mM NaCl, 25 C; EMSA: 50 mM Tris-HCl pH 8.0, 10 mM MgCl2, 25 mM NaCl, 25 ug/ml yeast tRNA, room temperature; SEC buffer not given (preparative complex: 20 mM Tris-HCl pH 8.0, 150 mM NaCl, 5 mM MgCl2); conditions: protein: recombinant, chain copies: 2, label: 5'-32P in EMSA, none in ITC, crystal, hairpin, L-shaped, 43 nt, stems P1 and P2
[4] = molecular target: T3, TetR(BD'); assay: ITC; n=0.96 (TetR dimer per aptamer); ITC: 20 mM potassium phosphate pH 7.4, 50 mM NaCl, 25 C; EMSA: 50 mM Tris-HCl pH 8.0, 10 mM MgCl2, 25 mM NaCl, 25 ug/ml yeast tRNA, room temperature; SEC buffer not given (preparative complex: 20 mM Tris-HCl pH 8.0, 150 mM NaCl, 5 mM MgCl2); conditions: protein: recombinant, chain copies: 2, label: 5'-32P in EMSA, none in ITC, crystal, hairpin, L-shaped, 43 nt, stems P1 and P2
[5] = molecular target: T2, TetR-Q38A; assay: EMSA; 10 mM Mg2+, 25 ug/ml yeast tRNA; exact Kd not determinable, weak binding detected; ITC: 20 mM potassium phosphate pH 7.4, 50 mM NaCl, 25 C; EMSA: 50 mM Tris-HCl pH 8.0, 10 mM MgCl2, 25 mM NaCl, 25 ug/ml yeast tRNA, room temperature; SEC buffer not given (preparative complex: 20 mM Tris-HCl pH 8.0, 150 mM NaCl, 5 mM MgCl2); conditions: protein: recombinant, chain copies: 2, label: 5'-32P in EMSA, none in ITC, crystal, hairpin, L-shaped, 43 nt, stems P1 and P2
[6] = molecular target: T2, TetR-Q38A; assay: SEC; ITC: 20 mM potassium phosphate pH 7.4, 50 mM NaCl, 25 C; EMSA: 50 mM Tris-HCl pH 8.0, 10 mM MgCl2, 25 mM NaCl, 25 ug/ml yeast tRNA, room temperature; SEC buffer not given (preparative complex: 20 mM Tris-HCl pH 8.0, 150 mM NaCl, 5 mM MgCl2); conditions: protein: recombinant; chain copies: 2; blunt
[7] = molecular target: T1, TetR-R28A; assay: as above; conditions: protein: recombinant; chain copies: 2; blunt
[8] = molecular target: TetR-Y42A (UniProt P04483 1-187+P0ACT4:188-208, Y42A;C68S;C88N;C121T;C144S;internal_change); assay: as above; conditions: protein: recombinant; chain copies: 2; blunt
[9] = molecular target: T3, TetR(BD'); assay: ITC; n=1.17; ITC: 20 mM potassium phosphate pH 7.4, 50 mM NaCl, 25 C; EMSA: 50 mM Tris-HCl pH 8.0, 10 mM MgCl2, 25 mM NaCl, 25 ug/ml yeast tRNA, room temperature; SEC buffer not given (preparative complex: 20 mM Tris-HCl pH 8.0, 150 mM NaCl, 5 mM MgCl2); conditions: protein: recombinant; chain copies: 2; blunt
[10] = molecular target: T3, TetR(BD'); assay: X-ray crystallography; 2.9 A; ITC: 20 mM potassium phosphate pH 7.4, 50 mM NaCl, 25 C; EMSA: 50 mM Tris-HCl pH 8.0, 10 mM MgCl2, 25 mM NaCl, 25 ug/ml yeast tRNA, room temperature; SEC buffer not given (preparative complex: 20 mM Tris-HCl pH 8.0, 150 mM NaCl, 5 mM MgCl2); conditions: protein: recombinant; chain copies: 2; hairpin, L-shaped, 39 nt, UUCG loop

Binder: GGCCGGAGAAUGUUAUGGCGCGAAAGCGCAGAGAAAACCGGUC (structured_RNA) [TetR-binding aptamer K1]
- binding result [1]: no binding
- Kd [2]: 26.2 nM
- Kd [3]: 80 nM
- Kd [4]: 5.6 nM
- Kd [5]: > 500 nM

B1: tetO operator 25 bp (dsDNA)
DNA 1: CGCATTCTATCATTGATAGGATGCG
DNA 2: CGCATCCTATCAATGATAGAATGCG
- binding result [6]: binds
- binding result [7]: no binding
- binding result [8]: no binding
- Kd [9]: 51.1 nM

Binder: GGCGGAGAAUGUUAUGGCCUUCGGGCAGAGAAAACCGUC (structured_RNA) [TetR-binding aptamer K2]
- binding result [10]: binds
